Among the data in paper PMC4560413, “Ethyl Pyruvate Emerges as a Safe and Fast Acting Agent against Trypanosoma brucei by Targeting Pyruvate Kinase Activity” (PLoS ONE, 2015) are Km values, retold here.

The subject of this data set is C=C(OP(=O)(O)O)C(=O)O. Briefly: purified protein. The settings on record: Mg2+.

Sequence of pyruvate kinase (PK-1 from rabbit muscle) (Oryctolagus cuniculus) (chain, as listed by the source): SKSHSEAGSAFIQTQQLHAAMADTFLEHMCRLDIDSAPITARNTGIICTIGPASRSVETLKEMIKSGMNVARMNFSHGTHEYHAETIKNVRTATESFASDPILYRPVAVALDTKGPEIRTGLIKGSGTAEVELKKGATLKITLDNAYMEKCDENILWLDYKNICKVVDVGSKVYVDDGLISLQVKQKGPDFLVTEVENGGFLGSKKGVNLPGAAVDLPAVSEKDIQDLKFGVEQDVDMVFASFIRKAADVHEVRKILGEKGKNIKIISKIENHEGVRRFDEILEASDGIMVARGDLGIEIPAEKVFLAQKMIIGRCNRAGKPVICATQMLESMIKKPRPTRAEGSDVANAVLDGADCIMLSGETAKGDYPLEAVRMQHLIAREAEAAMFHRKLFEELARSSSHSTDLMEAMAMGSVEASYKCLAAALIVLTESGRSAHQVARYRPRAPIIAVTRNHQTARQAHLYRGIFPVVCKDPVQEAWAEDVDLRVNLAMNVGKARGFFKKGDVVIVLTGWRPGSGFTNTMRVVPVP

Turning to “pyruvate kinase (PK-1 from rabbit muscle) (Oryctolagus cuniculus)”, the Km is 220 ± 20 µM.
